Results published in US20020151680A1 (VEGENICS, published 2002).

B1: 31-11 (ligand)
chain: GQNHHEVVKSIDNEWRKTQCMPIETLVDIFQEYPDEIEYIFKPSCVPLMRCGGCCNSEGLQCVPTEESNITMQIMRITVPLSQGPKPVTISFLQHNKCECRPKKDLVFEQKLISEEDLNSAVDHHHHHH
B2: 31-6 (ligand)
chain: GQNHHEVVKSIDNEWRKTQCMPIETLVDIFQEYPDEIEYIFKPSCVPLMRCGGCCNDEGLECMNTSTSYLSKTLFEIKPHQGQHIGEMSFANHTSCRCMSKLDLVFEQKLISEEDLNSAVDHHHHHH
B3: 31-1 (ligand)
chain: GQNHHEVVKSIDNEWRKTQCMPIETLVDIFQEYPDEIEYIFKPSCVPLMRCGGCCNDEGLECVPTEESNITMQIMRIKPHQGQHIGEMSFLQHNKCECRPKKDLVFEQKLISEEDLNSAVDHHHHHH
B4: 12-16 (ligand)
chain: GQNHHEVVKFMDVYQRSYCHPIETLVDIFQEFGVATNTFFKPPCVSVYRCGLLQ

target: T1, VEGFR-2-Fc (UniProt P35968 24-326); assay: 35S IP, receptor-Fc
T1 construct: domain: first 3 Ig domains; used as conditioned supernatant of 293T cells; also called VEGFR-2-Fc fusion protein; not shown: Fc fragment of the pIg vector
Protocol: (§1) The binding assay procedure was identical to the immunoprecipitation using pentahistidine antibody described in Example 2, apart from the composition of the immunoprecipitation (IP) mixes. The IP mixes used for the receptor binding analysis were as follows: For VEGFR- 1 binding assays, the IP mix was phosphate buffered saline (PBS) containing 1.5% BSA, 0.06% Tween 20, 3 μg/ml heparin and 400 ng/ml VEGFR-1 -Fc fusion protein (100 μl of this IP mix was added to 200 μl of sample supernatant); for VEGFR-2 binding assays, the IP mix was 82% conditioned cell supernatant from 293T cells transiently expressing VEGFR-2-Fc fusion protein in mixture with 18% of a PBS solution that contained 5% BSA, 0.2% Tween 20, and 10 μg/ml heparin (250 μl of IP mix was added to 200 μl of sample supernatant); and for VEGFR-3 binding assays, the IP mix was 82% conditioned cell supernatant from 293T cells transiently expressing VEGFR-3-Fc fusion protein, 18% of PBS containing 5% BSA, 0.2% Tween 20, and 10 μg/ml heparin (250 μl of IP mix was added to 200 μl of sample supernatant).

T1 sequence (P35968 24-326): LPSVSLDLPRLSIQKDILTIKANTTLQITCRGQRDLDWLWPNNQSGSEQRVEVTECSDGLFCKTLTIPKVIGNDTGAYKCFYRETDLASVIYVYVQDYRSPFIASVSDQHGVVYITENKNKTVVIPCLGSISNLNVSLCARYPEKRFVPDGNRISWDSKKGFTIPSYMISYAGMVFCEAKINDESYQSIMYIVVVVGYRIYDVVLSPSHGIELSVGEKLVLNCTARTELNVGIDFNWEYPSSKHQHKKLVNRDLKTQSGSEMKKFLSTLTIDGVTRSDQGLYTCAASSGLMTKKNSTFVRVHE

Binding result, no binding:
B1
B2
B3
B4

target: T2, VEGFR-1-Fc (UniProt P17948 27-331); assay: 35S IP, receptor-Fc
T2 construct: domain: first three Ig domains; expressed in Drosophila S2 cells, purified on Protein A sepharose; also called VEGFR-1-Fc fusion protein; not shown: Fc fragment from the Signal-pIgPlus vector
Protocol: as §1

T2 sequence (P17948 27-331): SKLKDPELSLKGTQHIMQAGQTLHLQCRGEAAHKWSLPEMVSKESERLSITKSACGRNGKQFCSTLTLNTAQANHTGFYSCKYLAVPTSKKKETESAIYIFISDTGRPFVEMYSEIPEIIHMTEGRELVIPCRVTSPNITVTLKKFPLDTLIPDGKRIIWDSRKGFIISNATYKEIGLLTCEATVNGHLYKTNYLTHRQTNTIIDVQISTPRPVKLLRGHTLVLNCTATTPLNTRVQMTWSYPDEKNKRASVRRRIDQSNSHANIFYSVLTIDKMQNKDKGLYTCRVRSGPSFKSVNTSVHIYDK

Binding result, no binding:
B1
B2
B3
B4

target: T3, VEGFR-3-Fc (UniProt P35916 25-329); assay: 35S IP, receptor-Fc
T3 construct: domain: first three Ig domains; used as conditioned supernatant of 293T cells; also called VEGFR-3-Fc fusion protein; not shown: Fc fragment of the pIg vector
T3 sequence (looked up): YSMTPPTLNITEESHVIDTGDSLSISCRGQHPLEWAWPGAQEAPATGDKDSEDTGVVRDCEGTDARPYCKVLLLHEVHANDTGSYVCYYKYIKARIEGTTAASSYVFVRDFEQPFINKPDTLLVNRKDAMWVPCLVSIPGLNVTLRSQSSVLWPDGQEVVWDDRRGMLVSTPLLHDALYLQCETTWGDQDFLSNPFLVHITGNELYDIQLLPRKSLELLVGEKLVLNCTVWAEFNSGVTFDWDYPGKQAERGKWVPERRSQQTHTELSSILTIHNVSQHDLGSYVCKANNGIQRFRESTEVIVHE
Protocol: as §1

Binding result, no binding:
B1
B2
B3
